This note sets out measurements from patent US20230256092A1, “COMBINED USE OF ANTI-CCR8 ANTIBODY AND CHEMOTHERAPEUTIC AGENT” (Shionogi & Co., Ltd., priority 2020, published 2023).

One assay deals with T1, hCCR8 (K35A) (Homo sapiens, UniProt P51685, K35A).
T1 construct: expressed in transfected cells; host or cells: Expi293 cells (method similar to that for the wild type)
Kind of assay: Antigen-binding test, human CCR8 point mutant. Particulars: in comparison to wild-type hCCR8. From the text:
(§1) Further, to analyze in more detail the N-terminal region that is an epitope region common to all clones having strong neutralization, the human CCR8 point mutants shown in Table 2 were produced. […] It is thus considered that the neutralizing antibodies recognize Y at position 17. In addition, although clone No. 8F7 is only shown in Table 2, plural other neutralizing antibodies had reduced binding activity to the mutant in which I at position 20 of human CCR8 is substituted with A (hCCR8 (I20A)). It is thus considered that some neutralizing antibodies have stereo-structural recognition to bind to isoleucine at position 20.

The target in another assay is T2, hCCR8 (I20A) (Homo sapiens, UniProt P51685, I20A).
T2 construct: expressed in transfected cells; host or cells: Expi293 cells (method similar to that for the wild type)
Kind of assay: Antigen-binding test, human CCR8 point mutant. Particulars: in comparison to wild-type hCCR8.
Source text: as §1

The next assay deals with T3, hCCR8 (I30A) (Homo sapiens, UniProt P51685, I30A).
T3 construct: expressed in transfected cells; host or cells: Expi293 cells (method similar to that for the wild type)
Kind of assay: Antigen-binding test, human CCR8 point mutant. Particulars: in comparison to wild-type hCCR8.
Source text: as §1

In another assay the target is T4, mouse CCR8 (Mus musculus, UniProt P56484).
T4 construct: expressed in transfected cells; host or cells: Expi293 cells, pcDNA 3.4 vector, transient
T4 sequence (P56484 1-353): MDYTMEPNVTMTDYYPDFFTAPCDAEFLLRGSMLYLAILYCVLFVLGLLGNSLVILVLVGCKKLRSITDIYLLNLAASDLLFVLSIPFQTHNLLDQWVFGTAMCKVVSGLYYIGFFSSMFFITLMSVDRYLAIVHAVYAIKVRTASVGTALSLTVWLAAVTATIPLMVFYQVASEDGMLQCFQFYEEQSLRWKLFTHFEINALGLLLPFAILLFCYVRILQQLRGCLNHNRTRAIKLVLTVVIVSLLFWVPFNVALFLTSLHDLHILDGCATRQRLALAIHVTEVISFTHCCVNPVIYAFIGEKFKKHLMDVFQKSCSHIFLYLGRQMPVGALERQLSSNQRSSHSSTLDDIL
Kind of assay: Antigen-binding test on transiently expressing Expi293 cells. On the set-up: key: an antibody having significantly reduced binding activity was indicated as A; an antibody having binding activity of the detection limit or less was indicated as x; The blank column means that it exhibits the same binding activity as the wild-type human CCR8 (hCCR8). The following applies: 5, 0.5 and 0.05 ug/mL, in comparison to wild-type hCCR8. From the text:
(§2) The gene encoding the full length of human CCR8 (UniProtKB/Swiss-Prot: P51685, SEQ ID NO: 1), the gene encoding the full length of human CCR4 (UniProtKB/Swiss-Prot: P51679, SEQ ID NO: 48) and the gene encoding the full length of mouse CCR8 (UniProtKB/Swiss-Prot: P56484, SEQ ID NO: 39) were cloned into pcDNA 3.4 vectors, respectively. These vectors were used for transfection to produce Expi293 cells transiently expressing human CCR8, human CCR4, or mouse CCR8. These cells were reacted with a dilution series of the purified antibodies of each clone, and the binding properties thereof were evaluated by detection with Alexa488-labeled anti-mouse IgG antibody (manufactured by Thermo Fisher Scientific). As a result, every antibody bound to human CCR8, but not to human CCR4 and mouse CCR8 at all.

For a further assay, the target named is T5, human CCR4 (Homo sapiens, UniProt P51679).
T5 construct: expressed in transfected cells; host or cells: Expi293 cells, pcDNA 3.4 vector, transient
T5 sequence (P51679 1-360): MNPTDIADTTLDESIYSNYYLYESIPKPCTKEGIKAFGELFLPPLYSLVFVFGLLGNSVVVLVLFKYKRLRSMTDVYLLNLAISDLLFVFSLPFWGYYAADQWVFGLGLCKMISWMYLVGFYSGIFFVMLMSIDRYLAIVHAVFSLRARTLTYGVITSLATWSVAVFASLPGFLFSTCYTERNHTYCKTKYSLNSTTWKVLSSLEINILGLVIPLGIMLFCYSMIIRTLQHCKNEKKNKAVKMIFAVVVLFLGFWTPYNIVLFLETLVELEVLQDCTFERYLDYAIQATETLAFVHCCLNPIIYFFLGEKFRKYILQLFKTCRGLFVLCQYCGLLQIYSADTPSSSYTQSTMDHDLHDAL
The assay is described as above. The arrangement: key: an antibody having significantly reduced binding activity was indicated as A; an antibody having binding activity of the detection limit or less was indicated as x; The blank column means that it exhibits the same binding activity as the wild-type human CCR8 (hCCR8). The following applies: 5, 0.5 and 0.05 ug/mL, in comparison to wild-type hCCR8.
Source text: as §2

The next assay concerns the target T6, loop2 hCCR4-hCCR8 (Homo sapiens, UniProt P51685, A175Y/D178R/F186K/F197L/F200L/G179N/I196V/K193T/K201E/L181T/L192T/M202I/N188S/N199S/Q173T/Q182Y/Q189L/Q190N/S176T/S185T/T191S/T198S/V174C/V180H/Y172S/Y184K).
T6 construct: expressed in transfected cells; host or cells: Expi293 cells (method similar to that for the wild type)
Kind of assay: Antigen-binding test, chimera. Particulars: 5, 0.5 and 0.05 ug/mL, in comparison to wild-type hCCR8.

B1: 8F7: mouse anti-human CCR8 neutralizing antibody; light chain SEQ ID NO: 33, heavy chain SEQ ID NO: 34 (antibody, V domains shown)
VH: EVQLVESGGRLVQPKRSLKLSCAASGFTFNPYAMYWIRQAPGQGLEWVARIRSKSNNYATYYADSVKDRFTISRDDSQSMLYLQMNNLKTEDTAMYYCVRGHQGTMDYWGQGTSVTVSS
VL: DIVMTQAAPSVPVTPGESVSISCRSSKSLLHSNGNTYLYWFLQRPGQSPQLLTYRMSNLASGVPDRFSGSGSGTAFTLRISRVEAEDVGVYYCMQHLEYPFTFGGGTKLEIKR
modifications: 8F7 VH; 8F7 VL
B1: the “binding activity, hCCR8 (K35A)” value with hCCR8 (K35A) was “Δ”. Also, the “binding activity, hCCR8 (I20A)” value with hCCR8 (I20A) is recorded as “Δ”. For the same molecule, in the assay with hCCR8 (I30A), the “binding activity, hCCR8 (I30A)” value is “Δ”. The “binding activity, mCCR8” value with mouse CCR8 was “x”. In addition, the “binding activity, hCCR4” value with human CCR4 was “x”. Further, the “binding activity, loop2 hCCR4-hCCR8” value with loop2 hCCR4-hCCR8 is “Δ”.
